# Measured values as given in paper PMC8274477 (Frontiers in Cell and Developmental Biology, 2021).
# Target: T1, OTULIN (OTU deubiquitinase with linear linkage specificity, FAM105B), His-tagged, biotin-labelled (human, UniProt Q96BN8 1-352, biotin (label; sites not stated))
# T1 construct: OTULIN (FAM105B), cDNA in pET28a; also called HIS-OTULIN; source: E. coli BL21 (DE3), purified (His-tag Purification Resin), labelled with biotin; not shown: His6, N-terminal, kept
# Assay: peptide or protein array; HuProt human proteome microarray; 5 ug/5 ml biotin-labelled LUBAC or OTULIN in solution, 1 h at room temperature; Cy5-streptavidin, scanned at 635 nm; BSA as negative control; hits: Z-score >= 3 and I_(Mean_Ratio) >= 1.4
# Details: both partners purified
row,binding result,Binder
1,binds,"XAGE3 (natural protein, human, UniProt Q8WTP9 1-111, looked up, XAGE3; protein on the human proteome microarray; source: spotted on the HuProt human proteome microarray) MIWRGRSTYRPRPRRSVPPPELIGPMLEPGDEEPQQEEPPTESRDPAPGQEREEDQGAAETQVPDLEADLQELSQSKTGGECGNGPDDQGKILPKSEQFKMPEGGDRQPQV"
2,binds,"BPHL (natural protein, human, UniProt Q86WA6 38-291, looked up, BPHL; protein on the human proteome microarray; source: spotted on the HuProt human proteome microarray) SVTSAKVAVNGVQLHYQQTGEGDHAVLLLPGMLGSGETDFGPQLKNLNKKLFTVVAWDPRGYGHSRPPDRDFPADFFERDAKDAVDLMKALKFKKVSLLGWSDGGITALIAAAKYPSYIHKMVIWGANAYVTDEDSMIYEGIRDVSKWSERTRKPLEALYGYDYFARTCEKWVDGIRQFKHLPDGNICRHLLPRVQCPALIVHGEKDPLVPRFHADFIHKHVKGSRLHLMPEGKHNLHLRFADEFNKLAEDFLQ"
3,binds,"C21orf59 (natural protein, human, UniProt P57076 1-290, looked up, C21orf59; protein on the human proteome microarray; source: spotted on the HuProt human proteome microarray) MVLLHVKRGDESQFLLQAPGSTELEELTVQVARVYNGRLKVQRLCSEMEELAEHGIFLPPNMQGLTDDQIEELKLKDEWGEKCVPSGGAVFKKDDIGRRNGQAPNEKMKQVLKKTIEEAKAIISKKQVEAGVCVTMEMVKDALDQLRGAVMIVYPMGLPPYDPIRMEFENKEDLSGTQAGLNVIKEAEAQLWWAAKELRRTKKLSDYVGKNEKTKIIAKIQQRGQGAPAREPIISSEEQKQLMLYYHRRQEELKRLEENDDDAYLNSPWADNTALKRHFHGVKDIKWRPR"
4,binds,"C1orf74 (natural protein, human, UniProt Q96LT6 1-269, looked up, C1orf74; protein on the human proteome microarray; source: spotted on the HuProt human proteome microarray) MLLLDLMSSPSPQLLVAAAQQTLGMGKRRSPPQAICLHLAGEVLAVARGLKPAVLYDCNCAGASELQSYLEELKGLGFLTFGLHILEIGENSLIVSPEHVCQHLEQVLLGTIAFVDVSSCQRHPSVCSLDQLQDLKALVAEIITHLQGLQRDLSLAVSYSRLHSSDWNLCTVFGILLGYPVPYTFHLNQGDDNCLALTPLRVFTARISWLLGQPPILLYSFSVPESLFPGLRDILNTWEKDLRTRFRTQNDFADLSISSEIVTLPAVAL"
5,binds,"C17orf82 (natural protein, human, UniProt Q86X59 1-251, looked up, C17orf82; protein on the human proteome microarray; source: spotted on the HuProt human proteome microarray) MGRPLEGQPLRALDLYPEPAFLRSGKDPKSSPASSPSFAVLGPEVRSTGGQAGSRRRPSAPCSQDRAAAEGAPALLGGSPSSGSPGHPPGSAFGVEAGCRALNVSEHARGGFALGLPFGLSGGAYLFLLLDGAGDPKPTPEAPISSADGRAWFPSESSWQLPQLPAGSTSGSEPRARPGLGPRQLLTGPRDGAAGQGPGRGLTARLGREREIDCGPRQAGHGGTATDTGRAGSGARHRPPRDRGTPGLRTH"
6,binds,"ALKBH3 (natural protein, human, UniProt Q96Q83 1-286, looked up, ALKBH3; protein on the human proteome microarray; source: spotted on the HuProt human proteome microarray) MEEKRRRARVQGAWAAPVKSQAIAQPATTAKSHLHQKPGQTWKNKEHHLSDREFVFKEPQQVVRRAPEPRVIDREGVYEISLSPTGVSRVCLYPGFVDVKEADWILEQLCQDVPWKQRTGIREDITYQQPRLTAWYGELPYTYSRITMEPNPHWHPVLRTLKNRIEENTGHTFNSLLCNLYRNEKDSVDWHSDDEPSLGRCPIIASLSFGATRTFEMRKKPPPEENGDYTYVERVKIPLDHGTLLIMEGATQADWQHRVPKEYHSREPRVNLTFRTVYPDPRGAPW"
7,binds,"BLVRB (natural protein, human, UniProt P30043 1-206, looked up, BLVRB; protein on the human proteome microarray; source: spotted on the HuProt human proteome microarray) MAVKKIAIFGATGQTGLTTLAQAVQAGYEVTVLVRDSSRLPSEGPRPAHVVVGDVLQAADVDKTVAGQDAVIVLLGTRNDLSPTTVMSEGARNIVAAMKAHGVDKVVACTSAFLLWDPTKVPPRLQAVTDDHIRMHKVLRESGLKYVAVMPPHIGDQPLTGAYTVTLDGRGPSRVISKHDLGHFMLRCLTTDEYDGHSTYPSHQYQ"
8,binds,"C11orf1 (natural protein, human, UniProt Q9H5F2 1-150, looked up, C11orf1; protein on the human proteome microarray; source: spotted on the HuProt human proteome microarray) MAASQCLCCSKFLFQRQNLACFLTNPHCGSLVNADGHGEVWTDWNNMSKFFQYGWRCTTNENTYSNRTLMGNWNQERYDLRNIVQPKPLPSQFGHYFETTYDTSYNNKMPLSTHRFKREPHWFPGHQPELDPPRYKCTEKSTYMNSYSKP"
9,binds,"ALKBH2 (natural protein, human, UniProt Q6NS38 1-261, looked up, ALKBH2; protein on the human proteome microarray; source: spotted on the HuProt human proteome microarray) MDRFLVKGAQGGLLRKQEEQEPTGEEPAVLGGDKESTRKRPRREAPGNGGHSAGPSWRHIRAEGLDCSYTVLFGKAEADEIFQELEKEVEYFTGALARVQVFGKWHSVPRKQATYGDAGLTYTFSGLTLSPKPWIPVLERIRDHVSGVTGQTFNFVLINRYKDGCDHIGEHRDDERELAPGSPIASVSFGACRDFVFRHKDSRGKSPSRRVAVVRLPLAHGSLLMMNHPTNTHWYHSLPVRKKVLAPRVNLTFRKILLTKK"
10,binds,"WBP2NL (natural protein, human, UniProt Q6ICG8 1-309, looked up, WBP2NL; protein on the human proteome microarray; source: spotted on the HuProt human proteome microarray) MAVNQSHTENRRGALIPNGESLLKRSPNVELSFPQRSEGSNVFSGRKTGTLFLTSYRVIFITSCSISDPMLSFMMPFDLMTNLTVEQPVFAANFIKGTIQAAPYGGWEGQATFKLVFRNGDAIEFAQLMVKAASAAARGFPLRTLNDWFSSMGIYVITGEGNMCTPQMPCSVIVYGAPPAGYGAPPPGYGAPPAGYGAQPVGNEGPPVGYRASPVRYGAPPLGYGAPPAGYGAPPLGYGAPPLGYGTPPLGYGAPPLGYGAPPAGNEGPPAGYRASPAGSGARPQESTAAQAPENEASLPSASSSQVHS"
11,binds,"ANXA3 (natural protein, human, UniProt P12429 1-323, looked up, ANXA3; protein on the human proteome microarray; source: spotted on the HuProt human proteome microarray) MASIWVGHRGTVRDYPDFSPSVDAEAIQKAIRGIGTDEKMLISILTERSNAQRQLIVKEYQAAYGKELKDDLKGDLSGHFEHLMVALVTPPAVFDAKQLKKSMKGAGTNEDALIEILTTRTSRQMKDISQAYYTVYKKSLGDDISSETSGDFRKALLTLADGRRDESLKVDEHLAKQDAQILYKAGENRWGTDEDKFTEILCLRSFPQLKLTFDEYRNISQKDIVDSIKGELSGHFEDLLLAIVNCVRNTPAFLAERLHRALKGIGTDEFTLNRIMVSRSEIDLLDIRTEFKKHYGYSLYSAIKSDTSGDYEITLLKICGGDD"
